Laboratory results reported in US11168316B2, “Chimeric clotting factors” (Bioverativ Therapeutics Inc., priority 2012, dated 2021).
Ends that are not written are not given here.

Target: T1, thrombin (Homo sapiens, UniProt P00734)
T1 construct: followed by 50 μL of thrombin (278 nM, 10 μg/mL)
Assay: Cleavage of peptides by 1.4 nM thrombin (HPLC)
Assay type: biochemical
Details: 50 μM peptide, 37° C.
Description: FIG. 19 depicts the cleavage of Compounds 1, 4, 5 and 6 by 1.4 nM thrombin. Compounds 1, 4 and 5 incorporate PABC and different thrombin-cleavable substrates. 50 μL of peptide (1 mM) in water was added to 900 μL PBS. The mixture was incubated at 37° C. for 30 min, followed by 50 μL of thrombin (27.8 nM, 1 μg/mL), giving the following approximate initial concentrations: thrombin=1.4 nM, peptide=50 μM. The mixture was incubated at 37° C. Aliquots (95 μL) at various time points were quenched with 5 μL of hirudin (2 μM) and injected into the HPLC (C-18 column, CH3CN/H2O, 0 to 70% over 12 minutes, 60° C. 0.5 mL/min, λ=280 nm). The decreases of peptide peak areas were used to calculate yield.

“Ala-Leu-Val-Pro-Arg-Ile-Val-Gly-Gly-Gln-Glu-NH2 (ALVPRIVGGQE-NH2; also: PABC self-immolative linker, place not given here) [Compound 6]” was tested, and the “thrombin-mediated release of peptide IVGGQE” value was “not observed”.
